Measured values published in US20050244416A1.

Biological target: melanoma-associated proteoglycan expressed on M21 and SKMel63 melanoma cells (UniProt Q6UVK1)
Experiment: cell-based or functional assay

Chain of UniProt Q6UVK1 (Q6UVK1 30-2322 limits assumed): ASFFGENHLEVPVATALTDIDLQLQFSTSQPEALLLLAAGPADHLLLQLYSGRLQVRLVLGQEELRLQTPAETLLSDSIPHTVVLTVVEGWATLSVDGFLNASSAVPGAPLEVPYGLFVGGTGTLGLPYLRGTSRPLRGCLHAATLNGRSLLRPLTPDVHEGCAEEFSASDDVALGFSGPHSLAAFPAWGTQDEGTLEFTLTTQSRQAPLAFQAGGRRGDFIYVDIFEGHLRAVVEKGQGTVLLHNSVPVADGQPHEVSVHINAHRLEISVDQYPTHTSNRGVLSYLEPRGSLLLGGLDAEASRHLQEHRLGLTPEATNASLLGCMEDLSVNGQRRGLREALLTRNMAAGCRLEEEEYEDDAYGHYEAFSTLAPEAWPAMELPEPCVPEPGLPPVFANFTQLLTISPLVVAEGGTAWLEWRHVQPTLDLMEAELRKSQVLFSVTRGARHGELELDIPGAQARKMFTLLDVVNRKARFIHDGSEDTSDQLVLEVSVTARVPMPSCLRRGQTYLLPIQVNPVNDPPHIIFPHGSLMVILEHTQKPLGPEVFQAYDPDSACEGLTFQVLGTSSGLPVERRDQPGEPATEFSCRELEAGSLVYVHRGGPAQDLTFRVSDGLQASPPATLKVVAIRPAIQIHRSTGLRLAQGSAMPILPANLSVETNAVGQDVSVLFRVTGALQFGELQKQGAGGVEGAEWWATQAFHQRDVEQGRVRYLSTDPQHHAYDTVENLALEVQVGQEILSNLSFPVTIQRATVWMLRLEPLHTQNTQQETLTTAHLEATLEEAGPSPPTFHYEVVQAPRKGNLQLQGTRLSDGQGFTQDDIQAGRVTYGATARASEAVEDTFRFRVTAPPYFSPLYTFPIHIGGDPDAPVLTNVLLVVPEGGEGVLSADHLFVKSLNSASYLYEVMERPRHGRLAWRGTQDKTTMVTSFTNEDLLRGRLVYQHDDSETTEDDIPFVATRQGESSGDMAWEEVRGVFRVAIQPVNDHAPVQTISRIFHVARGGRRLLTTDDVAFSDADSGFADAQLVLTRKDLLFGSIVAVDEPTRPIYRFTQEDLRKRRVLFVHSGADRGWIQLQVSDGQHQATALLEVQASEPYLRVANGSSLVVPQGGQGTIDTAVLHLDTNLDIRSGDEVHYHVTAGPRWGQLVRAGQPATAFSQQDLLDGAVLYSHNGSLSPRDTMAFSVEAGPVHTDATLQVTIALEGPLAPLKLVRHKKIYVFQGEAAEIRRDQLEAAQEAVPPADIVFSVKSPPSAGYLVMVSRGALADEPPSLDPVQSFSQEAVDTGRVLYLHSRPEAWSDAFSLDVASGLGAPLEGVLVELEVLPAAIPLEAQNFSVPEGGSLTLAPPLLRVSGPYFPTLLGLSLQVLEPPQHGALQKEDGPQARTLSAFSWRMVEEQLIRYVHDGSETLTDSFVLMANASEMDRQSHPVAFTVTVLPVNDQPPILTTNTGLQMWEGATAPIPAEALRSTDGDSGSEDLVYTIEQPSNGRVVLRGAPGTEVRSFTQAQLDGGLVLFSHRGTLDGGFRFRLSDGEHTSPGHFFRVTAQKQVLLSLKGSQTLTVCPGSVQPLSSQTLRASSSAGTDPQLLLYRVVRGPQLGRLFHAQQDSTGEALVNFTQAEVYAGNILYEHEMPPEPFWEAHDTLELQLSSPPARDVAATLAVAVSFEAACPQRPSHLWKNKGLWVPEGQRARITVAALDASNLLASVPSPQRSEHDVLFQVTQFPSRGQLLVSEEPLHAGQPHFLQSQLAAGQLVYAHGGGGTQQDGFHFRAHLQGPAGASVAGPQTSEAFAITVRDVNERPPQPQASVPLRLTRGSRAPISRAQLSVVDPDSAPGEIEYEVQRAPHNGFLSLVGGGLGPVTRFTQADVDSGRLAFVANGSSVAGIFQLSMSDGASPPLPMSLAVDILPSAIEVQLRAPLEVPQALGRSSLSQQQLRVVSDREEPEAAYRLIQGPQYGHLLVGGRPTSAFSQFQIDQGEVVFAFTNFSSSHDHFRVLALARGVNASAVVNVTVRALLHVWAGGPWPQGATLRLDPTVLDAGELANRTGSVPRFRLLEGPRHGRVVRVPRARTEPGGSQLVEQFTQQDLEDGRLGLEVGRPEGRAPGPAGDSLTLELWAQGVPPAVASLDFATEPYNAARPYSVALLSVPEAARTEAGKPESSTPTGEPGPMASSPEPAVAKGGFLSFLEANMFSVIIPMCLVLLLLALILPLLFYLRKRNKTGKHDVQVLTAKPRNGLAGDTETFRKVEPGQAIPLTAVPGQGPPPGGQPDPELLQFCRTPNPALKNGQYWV

- T cell proliferation (3H-thymidine uptake) of PBMC in the presence of irradiated SKMel63 cells: > 300 ng/mL
Substance: chemically hybridized bispecific F(ab')2 fragment with melanoma (9.2.27) and CD28 (9.3) specificity (cM28) (bispecific antibody)
